B1: monoclonal murine antibody 13E9 (antibody, V domains shown)
VH: EVKLQESGPGLVKPSQSLSLTCTVTSYSFTSDYAWSWIRQFPGIKLEWMGYITYSGVTSYNPSLKSRISITRDTSKNQFFLQLNSVTTEDTATYYCARADYDSYYTMDYWGQGTSVTVSS
VL: DIQLTQSPLSLPVSLGDQASISCRSSQSLVHSNGNTYLHWYLQKPGQSPRLLIYKVSNRFSGVPDRFSGSGSGTDFTLKISRVEAEDLGVYFCSQSTHFWTFGGGTKLEIK
notes: Mouse hybridoma antibody purified on protein A; also called antibody secreted by hybridoma cell line LT006 (IL-17A-13E9)
B2: monoclonal murine antibody 2G2 (antibody, V domains shown)
VH: EVQLEQSGSELRSPGSSVKLSCKDFDSEVFPIADMSWVRQKPGHGFEWIGDILPSFGRTIYGEKFEDKAKVDADTVSNTAYLELNSLTSEDSAIYYCARGNYGFAYWGQGTLVTVSA
VL: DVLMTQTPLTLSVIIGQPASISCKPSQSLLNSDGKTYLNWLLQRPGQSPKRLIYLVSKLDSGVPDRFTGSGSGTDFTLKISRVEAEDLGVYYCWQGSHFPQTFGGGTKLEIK
notes: Mouse hybridoma antibody purified on protein A; also called antibody secreted by hybridoma cell line LT007 (IL-17A-2G2)

Molecular target: IL-17A (24-155) protein (human, UniProt Q16552 24-155)
Sequence (Q16552 24-155): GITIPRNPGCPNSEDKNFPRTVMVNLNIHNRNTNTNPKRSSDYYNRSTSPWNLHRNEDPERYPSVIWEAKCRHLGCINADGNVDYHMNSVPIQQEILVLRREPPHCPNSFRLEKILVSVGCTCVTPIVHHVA
Assay: indirect ELISA screening of hybridomas

Binder | binding result
B1 | binds
B2 | binds

From patent publication US20210122815A1 (AKESO BIOPHARMA, published 2021)
